Source: patent US20240352070

Molecular target: T1, FRET substrate peptide KLRMKLPKP
T1 chain: KLRMKLPKP

B1: human cathepsin S wild-type, amino acids 17 to 331, C-terminal His-tag (CTSS-His) (protein)
chain: LPDSVDWREKGCVTEVKYQGSCGACWAFSAVGALEAQLKLKTGKLVSLSAQNLVDCSTEKYGNKGCNGGFMTTAFQYIIDNKGIDSDASYPYKAMDQKCQYDSKYRAATCSKYTELPYGREDVLKEAVANKGPVSVGVDARHPSFFLYRSGVYYEPSCTQNVNHGVLVVGYGDLNGKEYWLVKNSWGHNFGEEGYIRMARNKGNHCGIASFPSYPEI
Q: Which “cleavage in FRET assay” value does the source give for B1 here?
A: validating the identified peptide by showing in a FRET assay that it is cleaved by cathepsin S
